Broadly, the stoichiometry N is the number of molecules, sites or subunits per partner or assembly.

The text below walks through data of paper PMC11940719, “Assembly Formation of P65 Protein, Featured by an Intrinsically Disordered Region Involved in Gliding Machinery of Mycoplasma pneumoniae” (Biomolecules, 2025).

Data set [1] addresses P65 fragment C (tryptic fragment of region II) (Mycoplasma pneumoniae (strain M129-B7)). The experiment in a line: AUC; sedimentation velocity in 150 mM NaCl, 20 mM Tris-HCl (pH 8.0); absorbance scans at 10-minute intervals; C(s) distribution (SEDFIT).
Data set [2] deals with the molecule itself. Described as above.
Data set [3] concerns the molecule itself. The data set is described as above. The source holds these as a separate data set.
Data set [4] concerns the molecule itself. The experiment in a line: negative staining electron microscopy; proteins at 40 µg/mL stained with 2% uranyl acetate on carbon-coated grids, 80 kV.

Like-named read-outs stand apart in the source and are kept apart here.

In data set [1], “P65 fragment C (tryptic fragment of region II) (domain or fragment)” registered a stoichiometry N of 3.

B1: full-length P65 protein of Mycoplasma pneumoniae (natural protein)
chain: MDINKPGWNQSDQQATAYDPNQQQYYGDGSTYYDPDQAVDPNQAYYPDPNTYPDAAAYYGYGQDGQAYPQDYAQDPNQAYYADPNAYQDPNAYTDPNAYVDPNAYQDPNAYVDPNNYTDPNAYYGYGQDGQAYPQDYAQDPNQAYYADPNAYQDPNAYTDPYYVTSTDPNAYYGQVDNVPALEASDLAYEVTPQEQAAEQELFSEPETKVIREIHEFPFEKIRSYFQTDFDSYNSRLTQLKDKLDNAIFSMRKAIDTVKENSANLQIMKQNFERQLKEQQTQRLTSNTDAEKIGAKINQLEERMQRLSRTMESVEWTKKEPRQEQFDPRFVDPRNFNNYVNNTDTMMSMFEKVLMMNLLRSTTPVQPPVQYFTPQPLTASPRPVYEEPISASFRRRGYRGDEFYE
notes: P65 protein of Mycoplasma pneumoniae strain M129-B7, p65 gene (AGC04228), codon-optimised, in pET-15b (NdeI, BamHI); 405 residues; Forms a multimer of more than 60 subunits (about 3.10 x 10^6 Da) by analytical ultracentrifugation; The printed mass of 49,203 Da probably includes the tag peptide; also called Whole
Turning to B1, the “stoichiometry N” value in data set [2] was above 60.

B2: P65 fragment D (regions I and II, residues 1-320) (domain or fragment)
chain: MDINKPGWNQSDQQATAYDPNQQQYYGDGSTYYDPDQAVDPNQAYYPDPNTYPDAAAYYGYGQDGQAYPQDYAQDPNQAYYADPNAYQDPNAYTDPNAYVDPNAYQDPNAYVDPNNYTDPNAYYGYGQDGQAYPQDYAQDPNQAYYADPNAYQDPNAYTDPYYVTSTDPNAYYGQVDNVPALEASDLAYEVTPQEQAAEQELFSEPETKVIREIHEFPFEKIRSYFQTDFDSYNSRLTQLKDKLDNAIFSMRKAIDTVKENSANLQIMKQNFERQLKEQQTQRLTSNTDAEKIGAKINQLEERMQRLSRTMESVEWTKKE
notes: P65 protein of Mycoplasma pneumoniae strain M129-B7 (AGC04228), residues 1-320 (regions I and II); No cleavage of the tag is described; The printed theoretical mass of 39,080 Da probably includes the tag peptide; source: E. coli BL21(DE3), soluble fraction, purified (HisTrap HP, size exclusion chromatography)
Turning to B2, the “stoichiometry N” value in data set [3] came out at 3.

B3: P65 fragment B (residues 185-405) (domain or fragment)
chain: SDLAYEVTPQEQAAEQELFSEPETKVIREIHEFPFEKIRSYFQTDFDSYNSRLTQLKDKLDNAIFSMRKAIDTVKENSANLQIMKQNFERQLKEQQTQRLTSNTDAEKIGAKINQLEERMQRLSRTMESVEWTKKEPRQEQFDPRFVDPRNFNNYVNNTDTMMSMFEKVLMMNLLRSTTPVQPPVQYFTPQPLTASPRPVYEEPISASFRRRGYRGDEFYE
notes: P65 protein of Mycoplasma pneumoniae strain M129-B7 (AGC04228), residues 185-405 by mass spectrometry (26.3 kDa; theoretical 26,279 Da); peptide mass fingerprinting covers at least residues 212-405; source: the digest containing fragment B was used
Regarding B3, the binding result in data set [4] is reported as “binds”.
